This series can be described thus: label from the status in PepcDB records.
As to “MKKLIVDLDGTLTQANTSDYRNVLPRLDVIEQLREYHQLGFEIVISTARNMRTYEGNVGKINIHTLPIITEWLDKHQVPYDEILVGKPWCGHDGFYIDDRAVRPSEFASMNLEEIHQLFEKEKSCS”, the protein production result is reported as “not failed”. The entry for “PRKASRKPPREESSATCVLEQPGALGAQILLVQRPNSGLLAGLWEFPSVTWEPSEQLQRKALLQELQRWAGPLPATHLRHLGEVVHTFSHIKLTYQVYGLALEGQTPVTTVPPGARWLTQEEFHTAAVSTAMKKVFRVYQGQ” is “not failed”; for “MEVERKIVSLEALYIVYDADGTVAGELLYLLRKWLGKGHCAACDITHGPRKVKPEWTILQKTGWLGVPLFNIHRDEMEPKLRSAVSCALPCVAALVDNGDYVLLLQPEDLESCKGQVSKLQEKIVEALKDFGFQVNESFTSVVTSDLSDTCPSTLDREKEEDDAVVPF” it is “failed”. The entry for “MTRRVIALAGGATFKDIVRTMETQLISALPVIDSGSHVIGVVSEADVLRKEEFRDSDQLRGPRSRPPGALVKARAVTAEDLMTAPAVTVHPKAPVARAARLMARRRVKRLPVVDDEGVLQGIVSRADLLRVFLRSDPDIAEEVRREIVGGRFPEGLGSVRVEVHEGVVTLTGRVPDTSLVPLAERLVRSVEGVVDVRCVLTGPRHRMTGESEKAGAAAHRPGP” is “failed”; for “MGHHHHHHSHMDEQSVESIAEVFRCFICMEKLRDARLCPHCSKLCCFSCIRRWLTEQRAQCPHCRAPLQLRELVNCRWAEEVTQQLDTLQLCSLTKHEEN” it is “not failed”.

As to “MGHHHHHHSHMGRCYNNIVIDASIEAVWQQIGNFHDMSWAKGVITSLVKVGPASGTEVGAKRILNDAIHETLVSLDSSNYTFTYSIDDGPDAIAKSAVDNYLGMVNLSESSTGVLVEWSSSFTSDNEKAVTEFCDP”, the protein production entry is reported as “failed”. The entry for “MRPSAIVLAGGKEAWAERFGVGSKALVPYRGRPMVEWVLEALYAAGLSPVYVGENPGLVPAPALTLPDRGGLLENLEQALEHVEGRVLVATGDIPHLTEEAVRFVLDKAPEAALVYPIVPKEAVEARFPRTKRTYARLREGTFTGGNLLLLDKSLFRKALPLARRVVALRKRPLALARLVGWDVLLKLLLGRLSLAEVEARAQRILGVEARALVTPYPEVGVDVDREEDLVS” is “not failed”; for “MSLENKENLVVIDLAIAEDSIQKKNIVYDKNGQNHFDVISAFIKSIRGSDPDATLYWLANMVEAGEDPNFIFRRLLISACEDIGLADPNAIVVVQSCCDAFDRVGFPEGLFFLSQASLYLAISPKSNSTKSIFKAMEAIKATNVSLVPNHLKNNASNYLNPHNYQGKWLQQEYLPTDLQGIKFWKPKDSGWEKNKYEDLPKKQKSEGHHHHHH” it is “not failed”.

Regarding “MKTINVFHYDAFTNKPNMGNPAGIVLDADGLTEEEMQRIAEKVGFNETSFVLSSEVADIRMRYFTPGYEMDLCGHGTVGTIYALRERGLLEEKASLTIETKAGILPIQIGVNENGETFIKMRQTAPQFKDFAGSKEELAHSIGLEVNDLDVSLPIVYGSTGNWTVIVPVKNLDVCERMKPNNEVFPSVLKEIPNASIHPICLETYDEKVHMHGRHFSSAYAGTIEDPVTGTASGVMGAYYATYVEKDFDHEMELIVEQGQEIHKDGRVTVYVTKDVESEKLQIDIAGTAVYVKEFEVLI”, the protein production result is “failed”. Then “EKKEGHFSALPSLPVGSHAKVSSPQPRGPRYAEGTFISDYSIAMDKIHQQDFVNWLLAQKGKKNDWKHNITQREARALELASQANRKEEEAVEPQSSPAKNPSDEDLLRDLLIQELLACLLDQTNLCRLRSR”, with “failed”. Then “MSLARQVTAFNTGWQFKKGPFATDPMRAASQWDGKWETVEIPHTWNAMDMQVQSGSFYEGAGYYRKTQFFPHDLEGKRVFLRFEGVGACAEVYVNGKLAGTHKGGYSAFACEIGTALKLGAENEIIVKADNKARPDVIPVNQNLFGVYGGIYRPVWLIVTEQNNITVTDCASPGVYITQKDVSKKSADITVKVKLDNAGLQPAAVTLENTIYTQEGQKVGTHSRSFDLSPQGTQTYLSTFKLKNPHLWQGRKDPYLYKVVCRLMADGKVIDEVVQPLGVRKYEIVAGKGFFLNGEKYSMYGVTRHQDWWGLGSALKNEHHDFDLAAIMDVGATTVRFAHYQQSDYLYSRCDTLGLIIWAEIPCVNRVTGYETENAQSQLRELIRQSFNHPSIYVWGLHNEVYQPHEYTAALTRSLHDLAKTEDPDRYTVSVNGYGHMDHPVNLNADIQGMNRYFGWYEKKIQDIKPWVEQLEKDYPYQKLMLTEYGADANLAHQTEYLGDALNWGKPFYPETFQTKTHEYQWSIIKDHPYIIASYLWNMFDFAVPMWTRGGVPARNMKGLITFDRKTKKDSYFWYKANWSEEPVLYLTQRRNADREKRTTAVTVYSNIGTPKVYLNGQELSGIRNGYTDVHYVFDNVSLADGKNILKAVVSTKGKEYTDEIEWNYSGEKNREIDSYENKNEHSGEGHHHHHH”, with “not failed”; and “MENSDETKMSEEILALVDEFQQAWPLEGFGGALEMKGRRLDLQGIRVLKKGPQDGVARSSCYGDCRSEDDEATEWITFQVKRVKKPKGDHKKTPGKKVETGQIENGHRYQANLEITGPKVASPGPQGKKRDYQRLGWPSPDECLKLRWVELTAIVSTWLAVSSKNIDITEHIDFATPIQQPAMEPLCNGNLPTSMHTLDHLHGVSNRASLHYTGESQLTEVLQNLGKDQYPQQSLEQIGTRIAKVLEKSQTSWVLSSMAALYWRVKGQGKKAIDCLRQALHYAPHQMKDVPLISLANILHNAKLWNDAVIVATMAVEIAPHFAVNHFTLGNVYVAMEEFEKALVWYESTLKLQPEFVPAKNRIQTIQCHLMLKKGRRSP”, with “failed”; and “MKALNDLNIFVETARQGSFSKAANSMDMTPAAISASIKRLEGQIGFPLFVRSTRSLRLTSEGELFLDKTTQALATLQEGLDQISSARGELSGQLHITAPSDFGRNMLLDWVDEFIDLYPNVSIKLELSDSLTDMYTKPVDIAIRYGEPADSNLVVLALCGSNERILCASPEYVATHPELTSPADLTQHNCLCYMVADSVYNKWTLTRDGEKEQVVVSGNLMSNDSDLPHRLAIKGKGIANKSLMDISRDLIEGRLVRVLPEWDSGPVPLYMVCADRRLLTPTIRTFRDFIQQKCCQQRANVLATFCH”, with “failed”. Then “MNIAPVVDSLSAPAMLEELKQSPPWLRLSLLFPLFFLNGWLIYKAMGFLQPLSSLLVAAALLAFLLDIPVRILVEKGLKRPWAVASVLLIALVVISLFLLIVIPLAIDQLGQLLDNLPGWFRSGNAQLLMLQAWVNEHYANLQVDLQPLISQAIEKLSRILNSFGNQLLGLVGVTISTSINGLILLVLTIFLVLGGEKIWDGIFSWFPHPWQRDLQNLIRDTFEGYFATQAILAGILSVAQMVVFTLLQAPYAILFAITIGLSTLIPFASALSIIVISLLLMLENFWLGVKILLAAVIVGQINDNVISPRLMGNRTGLNPAWIIVSLFVGSKLGGVLGLLVAVPLASVIKATSDRLRGLPKKSGEQPAEVSVVST”, with “failed”; and “MKVKILVDSTADVPFSWMEKYDIDSIPLYVVWEDGRSEPDEREPEEIMNFYKRIREAGSVPKTSQPSVEDFKKRYLKYKEEDYDVVLVLTLSSKLSGTYNSAVLASKEVDIPVYVVDTLLASGAIPLPARVAREMLENGATIEEVLKKLDERMKNKDFKAIFYVSNFDYLVKGGRVSKFQGFVGNLLKIRVCLHIENGELIPYRKVRGDKKAIEALIEKLREDTPEGSKLRVIGVHADNEAGVVELLNTLRKSYEVVDEIISPMGKVITTHVGPGTVGFGIEVLERKR”, with “not failed”.

Turning to “MIILRRLSKEKHHQVNPLWHIYRKIKFVKVLKQTLIIEIARFVPSMKLKNKIYKKLLKMDVGNHTSFAYKVLPDLFYPEYISVGKNTVIGYNTTILTHEVLVDEWRVGKVIIGDYTLIGANTTILPGITIGNHVKIGAGTVVSKDVPDYSFAFGNPMQIQLDSGGDNEWHKKKITSFQ”, the protein production entry is “failed”. The entry for “MIYSKVENFINENKQNAIFTEGASHENIGRIEENLQCDLPNSYKWFLEKYGAGGLFGVLVLGYNFDHASVVNRTNEYKEHYGLTDGLVVIEDVDYFAYCLDTNKMKDGECPVVEWDRVIGYQDTVADSFIEFFYNKIQEAKDDWDEDEDWDD” is “not failed”. For “MSTPRPSLTLTLLQAREAAMSFFRPSLNQHGLTEQQWRVIRILRQQGEMESYQLANQACILRPSMTGVLARLERDGIVRRWKAPKDQRRVYVNLTEKGQQCFVSMSGDMEKNYQRIQERFGEEKLAQLLELLNELKKIKP”, the protein production entry is on record as “not failed”. Then “MFRDEDETTPPRAREVERLKKRLYRLKYLAHKYKRAEVVQNALLELSHIATQVSSLEEFYLGVHHHLKQLISADNFFIATLDVNSGAISVPFFADEKDAHPSQLYPEQSLSTLLQQGLTGYVFRTGQTLLCDESKVDELVNAEEIVNLGSPCHLWLGVPIKHEDIVTAVLVVQTYDTNVSYGDIEVELMTFICHHITGVMERLKHQEQLEQAIQQ”, with “failed”; and “MASSTTSTVTDLSAALVMAPVPLADWLIILPIALCIGAGAVLMMMRHAIRHHAAVAIAALSLLVILNAALLWKVATQGPFTMVMGRWLPPFGIAFTADLTGALLSLAAAIVALAGAIHAGADIDASGRRYGFYPFLMLLMAGVTGAFLTGDLFNLYVWFEVLLISSFGLIVLGSTREQIDGALKYAILNLIGTTLFLITVGYLYAIFGTLNMADIALKATELRGTAPLMTLASLFALAFAMKAAAFPVNFWLPASYHTPRIVVSALFGGLLTKVGIYSLLRVMVMLFPVEREELSIVIAISAALTMVLGAMGALAQNDIRRMLGYIVISGIGYMMAGIAIGTPSGVSGAIFYALHSMVLMTALYLAAGHAARLGGGFSLTSLGDLYRQAPWFSALALALFFAGSGLPPFSGFWPKAVLVKSAIDIGAWWLAAAILVSGFIATIAFGRVFLLCFWRPVTTSAGQPALQPAARPPAPSVAPLVGLTLLVVFFGLFPESLLNLSQQAAAGLGNPQAYIQSVFPQGGKP”, with “failed”; and “MRPAPSIVEVVAAIIIGSDGSFLLARRPEGKPYAGYWEFPGGKVNPEESLLRALKRELLEELGIHVKHAYPWITRTFTYPHARVRLHFYRVVEWHGEPHPHEDQELSWQFADNVSVEPLLPANAPVLRALALPPVYGITNAAEWGPQIAAARIGHALQKGLRLVQLREKGMRSKALDAFAREVTALAHHYGARILVNSGTGNESLCQELDMDGIHFTSADLMNLSKRPDVEWCAASCHNAEELFRAEQLEMDFAVLAPVLPTLSHPDSPVLGWRKLARIIHGSAIPVYALGGLQSEDLAIAWEHGAHGIALMRRIEQVRGTGQKA”, with “failed”. The entry for “MEGKEEDVRVGANKFPERQPIGTSAQSDKDYKEPPPAPFFEPGELSSWSFWRAGIAEFIATFLFLYITVLTVMGVKRSPNMCASVGIQGIAWAFGGMIFALVYCTAGISGGHINPAVTFGLFLARKLSLTRALYYIVMQCLGAICGAGVVKGFQPKQYQALGGGANTVAHGYTKGSGLGAEIIGTFVLVYTVFSATDAKRNARDSHVPILAPLPIGFAVFLVHLATIPITGTGINPARSLGAAIIYNKDHSWDDHWVFWVGPFIGAALAALYHVVVIRAIPFKSRS” is “failed”; for “MVEAIIFDMDGVLFDTEKYYYDRRASFLGQKGISIDHLPPSFFIGGNTKQVWENILRDEYDKWDVSTLQEEYNTYKQNNPLPYKELIFPDVLKVLNEVKSQGLNIGLASSSVKADIFRALEENRLQAFFDIVLSGEEFKESKPNPEIYLTALKQLNVQASRALIIEDSEKGIAAGVAADVEVWAIRDNLFGMDQSAAKGLLDSLTDVLDLIK” it is “not failed”. Consider “MAMNGTITTWFKDKGFGFIKDENGDNRYFHVIKVANPDLIKKDAAVTFEPTTNNKGLSAYAVKVVPESKYIYIAGERLKLTSIKSYLVYSEEVPADTRIDKENTVLSVGVLMNSIRPKSVAEPDEIRSLKKLAITTFQGTTLIFSEDEIDVDATVKLLKVLEHHHHHH”, for which the protein production result is recorded as “not failed”.
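Also: failed if final PepcDB status was selected cloned or expressed and not failed if soluble or beyond.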
